Measurements as given in article PMC6565432.

Target: VAPB (endogenous, COS-7 cells) (African green monkey (endogenous in COS-7))
Assay: proximity ligation

Substance: ACBD5 (endogenous, COS-7 cells) (natural protein)
- PLA signals per cell (PLA signals per cell): 5.6
- PLA signals per cell (single plane) (PLA signals per cell): 10.4
- PLA signals per cell (z-stack) (PLA signals per cell): 11.3
